Experimental data taken from patent US10494415B2, “Insulin-like growth factor 2 (IGF2) binding agents” (Cancer Research Technology Limited, priority 2015, dated 2019).
Changes are numbered by the printed parent chain. In names and notes the source's numbering stands. Blank lines part the entries; values can stand above or below the molecule they belong to.

Molecular target: IGF2 (Homo sapiens, UniProt P01344)
Test: SPR (Biacore T200) of recombinant IGF2R domain 11 mutants on immobilised biotinylated IGF2
Assay type: binding
Design: purchased GroPep
Text: Surface plasmon resonance (SPR) binding analysis of recombinant M6P/IGF2R domain 11 mutants interaction with IGF2. Kon indicates association (on) rate; koff, dissociation (off) rate; RU, response units. Binding to IGF2 assessed with BIAcore T200 using purified biotinylated IGF2 and IGF1 on a streptavidin biosensor chip. Recombinant proteins were expressed either in E. coli and/or P. pastoris. All the mutants in the FG and CD loops are on the domain 11^AB5 background for the AB loop unless otherwise stated. All experiments were carried out at 25° C. in HBS-EP buffer (pH 7.4), were repeated 2-5 times on two independent BIAcore chips. nd=not determined. Data for KD expressed as mean of each experiment, and means of kon and koff are shown.
Measurements were carried out at 25° C. in HBS-EP buffer (pH 7.4) (nd=not determined, np=no protein). Data for KD expressed as mean of each experiment, and means of kon and koff are shown.
Measurements were carried out at 25° C. in MES-EP buffer, 20 mM MES pH 6.5, 150 mM NaCl, 3 mM EDTA, and 0.005% (v/v) surfactant P20). Data for KD expressed as mean of each experiment, and means of kon and koff are shown.
Final kinetic analysis of mutants by SPR was conducted using a Biacore T200 biosensor at 25° C. in either HBS-EP (10 mM HEPES pH 7.4, 150 mM NaCl, 3 mM EDTA, and 0.005% (v/v) surfactant P20) or MES-EP (20 mM MES pH 6.5, 150 mM NaCl, 3 mM EDTA, and 0.005% (v/v) surfactant P20) at a flow-rate of 40 μL min^−1. […] For the analysis of the Fc-domain 11^AB5 interaction, approximately 50 RU of a biotinylated IGF2:biotinylated ubiquitin mixture (1:8 proportion) was immobilized on the CM5-streptavidin chip. This interaction was also analysed by immobilizing the Fc-domain 11^AB5 and Fc-domain 11^AB5-RHH (or Fc-domain 11^I1572A as control) by Human Antibody Capture (monoclonal mouse anti-human IgG antibody immobilised on a CM5 chip by amine coupling, GE Healthcare) with and without human IgG1 Fc fragment (Bethyl Laboratories, UK) in the control flow cell. Increasing concentrations of IGF2^1-67, proIGF2^1-104, proIGF2^1-156 and IGF1 ranging from 0.125 to 32 nM were injected. T200 BiaEvaluation software (GE Healthcare) was used to fit the resulting curves according to a 1:1 binding model. Steady state affinities were determined using the kinetic data, taking the response average at 5 seconds before injection end and for 5 seconds average. Thermodynamic data was performed across the temperature range of 10° C. to 30° C., van't Hoff and Erying plots generated and ΔH, −TΔS and ΔG values determined as previously described.

IGF2, sequence (P01344 25-91): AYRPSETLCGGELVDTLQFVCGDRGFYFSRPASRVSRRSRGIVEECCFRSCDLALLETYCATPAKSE

- Kinetics koff (Table 1, 25° C., HBS-EP pH 7.4): 0.0196 s⁻¹
- Kinetics kon (Table 1, 25° C., HBS-EP pH 7.4): 800000 M⁻¹ s⁻¹
B1: T1633A: domain 11 HI loop mutant T1633A, probably AB5 background (protein)
chain: MKSNEHDDCQVTNPSTGHLFDLSSLSGRAGFTAAYAKGWGVYMSICGENENCPPGVGACFGQTRISVGKANKRLRYVDQVLQLVYKDGSPCPSKSGLSYKSVISFVCRPEAGPTNRPMLISLDKQACTLFFSWHTPLACEQATECSV

- Kinetics koff (Table 1, 25° C., HBS-EP pH 7.4): 0.0180 s⁻¹
- Kinetics kon (Table 1, 25° C., HBS-EP pH 7.4): 4.5e+06 M⁻¹ s⁻¹
B2: W1546F: domain 11 AB5 with W1546F in the AB loop (protein)
chain: B1 chain with W39F, A126T

- Kinetics koff (Table 3, 25° C., HBS-EP pH 7.4): 0.0203 s⁻¹
- Kinetics kon (Table 3, 25° C., HBS-EP pH 7.4): 6.53e+06 M⁻¹ s⁻¹
B3: AB5 P1597Q: domain 11 AB5 + P1597Q (protein)
chain: B1 chain with P90Q, A126T

- Kinetics koff (Table 3, 25° C., HBS-EP pH 7.4): 0.016 s⁻¹
- Kinetics kon (Table 3, 25° C., HBS-EP pH 7.4): 2.01e+07 M⁻¹ s⁻¹
B4: AB3 Q1569R P1597K S1602H: domain 11 AB3 + Q1569R, P1597K, S1602H (protein)
chain: B1 chain with A36S, G38S, W39G, G40V, Q62R, P90K, S95H, A126T

- Kinetics koff (Table 2): 0.24 s⁻¹
- Kinetics kon (Table 2): 1.89e+06 M⁻¹ s⁻¹
B5: WT + 26C (HI-DMQT): wild-type domain 11 with HI loop DMQT (clone 26C) (protein)
chain: B1 chain with A36S, K37E, G38K, W39G, G40L, K124M, A126T

- Kinetics koff (Table 3, 25° C., HBS-EP pH 7.4): 0.0174 s⁻¹
- Kinetics kon (Table 3, 25° C., HBS-EP pH 7.4): 1.9e+06 M⁻¹ s⁻¹
B6: AB5 P1597A: domain 11 AB5 + P1597A (protein)
chain: B1 chain with P90A, A126T

- Kinetics koff (Table 3, 25° C., HBS-EP pH 7.4): 0.0070 s⁻¹
- Kinetics kon (Table 3, 25° C., HBS-EP pH 7.4): 3.68e+06 M⁻¹ s⁻¹
B7: AB5 P1597H: domain 11 AB5 + P1597H (protein)
chain: B1 chain with P90H, A126T

- Kinetics koff (Table 2): 0.065 s⁻¹
- Kinetics kon (Table 2): 250000 M⁻¹ s⁻¹
B8: WT + 23D (HI-HFQS): wild-type domain 11 with HI loop 1630-1633 HFQS (clone 23D) (protein)
chain: B1 chain with A36S, K37E, G38K, W39G, G40L, D123H, K124F, A126S

- Kinetics koff (Table 2): 0.25 s⁻¹
- Kinetics kon (Table 2): 2e+06 M⁻¹ s⁻¹
B9: WT + 27G (HI-NMAL): wild-type domain 11 with HI loop NMAL (clone 27G) (protein)
chain: B1 chain with A36S, K37E, G38K, W39G, G40L, D123N, K124M, Q125A, A126L

- Kinetics koff (Table 3, 25° C., HBS-EP pH 7.4): 0.0180 s⁻¹
- Kinetics kon (Table 3, 25° C., HBS-EP pH 7.4): 4.72e+06 M⁻¹ s⁻¹
B10: AB5 P1597N: domain 11 AB5 + P1597N (protein)
chain: B1 chain with P90N, A126T

- Kinetics koff (Table 3, 25° C., HBS-EP pH 7.4): 0.0287 s⁻¹
- Kinetics kon (Table 3, 25° C., HBS-EP pH 7.4): 1.05e+07 M⁻¹ s⁻¹
B11: AB3 P1597K: domain 11 AB3 + FG loop P1597K (protein)
chain: B1 chain with A36S, G38S, W39G, G40V, P90K, A126T

- Kinetics koff (Table 3, 25° C., HBS-EP pH 7.4): 0.0171 s⁻¹
- Kinetics kon (Table 3, 25° C., HBS-EP pH 7.4): 2.08e+07 M⁻¹ s⁻¹
B12: AB3 Q1569R P1597K S1602H G1603K: domain 11 AB3 + Q1569R, P1597K, S1602H, G1603K (protein)
chain: B1 chain with A36S, G38S, W39G, G40V, Q62R, P90K, S95H, G96K, A126T

- Kinetics koff (Table 2): 0.031 s⁻¹
- Kinetics kon (Table 2): 1.36e+07 M⁻¹ s⁻¹
- Kinetics koff (Table 3, 25° C., HBS-EP pH 7.4): 0.031 s⁻¹
- Kinetics kon (Table 3, 25° C., HBS-EP pH 7.4): 1.36e+07 M⁻¹ s⁻¹
B13: AB3 Q1569R: domain 11 AB3 + CD loop Q1569R (protein)
chain: B1 chain with A36S, G38S, W39G, G40V, Q62R, A126T

- Kinetics koff (Table 3, 25° C., HBS-EP pH 7.4): 0.012 s⁻¹
B14: AB3 P1597H HI^23D: domain 11 AB3 + P1597H + HI loop of clone 23D (HFQS) (protein)
chain: B1 chain with A36S, G38S, W39G, G40V, P90H, D123H, K124F, A126S

- Kinetics koff (Table 3, 25° C., HBS-EP pH 7.4): 0.010 s⁻¹
- Kinetics kon (Table 3, 25° C., HBS-EP pH 7.4): 1.41e+07 M⁻¹ s⁻¹
- Kinetics koff (Table 4, MES-EP pH 6.5): 0.0064 s⁻¹
- Kinetics kon (Table 4, MES-EP pH 6.5): 1.61e+07 M⁻¹ s⁻¹
B15: AB3 Q1569R P1597H S1602H: domain 11 AB3 + Q1569R, P1597H, S1602H (protein)
chain: B1 chain with A36S, G38S, W39G, G40V, Q62R, P90H, S95H, A126T

- Kinetics koff (Table 3, 25° C., HBS-EP pH 7.4): 0.0193 s⁻¹
- Kinetics kon (Table 3, 25° C., HBS-EP pH 7.4): 5e+06 M⁻¹ s⁻¹
B16: AB5 P1597S: domain 11 AB5 + P1597S (protein)
chain: B1 chain with P90S, A126T

- Kinetics koff (Table 2): 0.10 s⁻¹
- Kinetics kon (Table 2): 7.4e+06 M⁻¹ s⁻¹
B17: AB5 + 51F (HI-NRQS): domain 11 AB5 with HI loop NRQS (clone 51F) (protein)
chain: B1 chain with D123N, K124R, A126S

- Kinetics koff (Table 3, 25° C., HBS-EP pH 7.4): 0.0241 s⁻¹
- Kinetics kon (Table 3, 25° C., HBS-EP pH 7.4): 2e+07 M⁻¹ s⁻¹
B18: AB3 Q1569R P1597K: domain 11 AB3 + Q1569R, P1597K (protein)
chain: B1 chain with A36S, G38S, W39G, G40V, Q62R, P90K, A126T

- Kinetics koff (Table 2): 0.15 s⁻¹
- Kinetics kon (Table 2): 1.07e+06 M⁻¹ s⁻¹
B19: WT + 312G (HI-VKLM): wild-type domain 11 with HI loop VKLM (clone 312G) (protein)
chain: B1 chain with A36S, K37E, G38K, W39G, G40L, D123V, Q125L, A126M

- Kinetics koff (Table 2): 0.013 s⁻¹
- Kinetics kon (Table 2): 1.06e+07 M⁻¹ s⁻¹
- Kinetics koff (Table 3, 25° C., HBS-EP pH 7.4): 0.013 s⁻¹
- Kinetics kon (Table 3, 25° C., HBS-EP pH 7.4): 1.06e+07 M⁻¹ s⁻¹
B20: AB3 P1597H: domain 11 AB3 + FG loop P1597H (protein)
chain: B1 chain with A36S, G38S, W39G, G40V, P90H, A126T

- Kinetics koff (Table 3, 25° C., HBS-EP pH 7.4): 0.0175 s⁻¹
- Kinetics kon (Table 3, 25° C., HBS-EP pH 7.4): 8.04e+06 M⁻¹ s⁻¹
B21: AB5 Q1569R: domain 11 AB5 + CD loop Q1569R (protein)
chain: B1 chain with Q62R, A126T

- Kinetics koff (Table 3, 25° C., HBS-EP pH 7.4): 0.3478 s⁻¹
- Kinetics kon (Table 3, 25° C., HBS-EP pH 7.4): 1.97e+07 M⁻¹ s⁻¹
B22: AB3 P1597H K1631W: domain 11 AB3 + P1597H, K1631W (protein)
chain: B1 chain with A36S, G38S, W39G, G40V, P90H, K124W, A126T

- Kinetics koff (Table 3, 25° C., HBS-EP pH 7.4): 0.0102 s⁻¹
- Kinetics kon (Table 3, 25° C., HBS-EP pH 7.4): 2.74e+06 M⁻¹ s⁻¹
B23: AB3 P1597K S1602H: domain 11 AB3 + P1597K, S1602H (protein)
chain: B1 chain with A36S, G38S, W39G, G40V, P90K, S95H, A126T

- Kinetics koff (Table 3, 25° C., HBS-EP pH 7.4): 0.0120 s⁻¹
- Kinetics kon (Table 3, 25° C., HBS-EP pH 7.4): 9.54e+06 M⁻¹ s⁻¹
B24: AB5 P1597K: domain 11 AB5 + P1597K (protein)
chain: B1 chain with P90K, A126T

- Kinetics koff (Table 3, 25° C., HBS-EP pH 7.4): 0.0150 s⁻¹
- Kinetics kon (Table 3, 25° C., HBS-EP pH 7.4): 4.18e+06 M⁻¹ s⁻¹
B25: AB5 P1597L: domain 11 AB5 + P1597L (protein)
chain: B1 chain with P90L, A126T

- Kinetics koff (Table 3, 25° C., HBS-EP pH 7.4): 0.0153 s⁻¹
- Kinetics kon (Table 3, 25° C., HBS-EP pH 7.4): 1.89e+07 M⁻¹ s⁻¹
- Kinetics koff (Table 4, MES-EP pH 6.5): 0.0091 s⁻¹
- Kinetics kon (Table 4, MES-EP pH 6.5): 1.99e+07 M⁻¹ s⁻¹
B26: AB3 Q1569R P1597H: domain 11 AB3 + Q1569R, P1597H (protein)
chain: B1 chain with A36S, G38S, W39G, G40V, Q62R, P90H, A126T
